Literature values in PMC4271846.

Molecular target: tau (Homo sapiens) (UniProt P10636)
Assay: SPR

Kd: 46 µM
Substance: tau (from UniProt P10636)
